Measured values reported in the nanobody polyreactivity screen of Harvey et al. (2022).

Experiment: yeast display, Sf9 membrane polyspecificity reagent, FACS + sequencing; frameworks hold sequencing errors
Outline: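 Genes from sorted yeast were amplified by colony PCR, read by MiSeq 2 × 250 sequencing and filtered on CDR length. These cells carried a synthetic nanobody library in Saccharomyces cerevisiae BJ5465 and were sorted by FACS into low and high (top ~1%) gates on anti-HA and streptavidin fluorescence. Polyreactivity is labelled according to the gate of origin.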

| Sequence | polyreactivity (PSR sort gate) |
| --- | --- |
| QVQLVESGGGLVQAGGSLRLSCAASGRIFRRYAMGWYRQAPGTETELVAAISSGASTYYADSVKGRFTISRDNAKNTVYLQMNSLKPEDTAVYYCAVDRPYYYGYRMDYWGQGTQVTVSS | low polyreactivity |
| QVQLVESGGGLVQAGGSLRLSCAASGRIFRSNAMGWYRQAPGKERELVAAITWSGGSTYYADSVKGRFTISRDNAKNTVYLQMNSLKPEDTAVYYCAADGYTAYLPYYWFDYWGQGTQVTVSS | high polyreactivity |
| QVQLVESGGGLVQAGGSLRLSCAASGRIFRSNSMGWYRQAPGKERELVATITRSGGSTYYADSGKGRFSISRDNAKNTVYVQKNSLKPEDTAVYYCNAVFGSAYRAQRIMGYWGQGTQVTVSS | low polyreactivity |
| QVQLVESGGGLVQAGGSLRLSCAASGRIFRTYAMGWYRQAPGKERELVAAINSVDRTYYADSVKGRFTISRDNAKNTVYLQMNSLKPEDTAVYYCAATIAPTPGYIIYDYWGQGTQVTVSS | high polyreactivity |
| QVQLVESGGGLVQAGGSLRLSCAASGRIFRVYAMGWYRQAPGKERELVAAISGRGGSTTYADSVKGRFTISRDNAKNTVYLLMNSLKPEDTAVYYCAAGYRVDYWGQGTQVTVSS | low polyreactivity |
| QVQLVESGGGLVQAGGSLRLSCAASGRIFRVYAMGWYRQAPGKERELVAAISSGGSTNYADSVKGRFTISRDNANNTVYLQMNSLKPEDTAVYYCAATVRGVGYRYYYWGQGTQVTVSS | high polyreactivity |
| QVQLVESGGGLVQAGGSLRLSCAASGRIFRVYTMGWYRQAPGKERQLVATISYRGGSTYYADSVKGRFTISRDNAKNTVFLQMNSLTPDDNAVYNCAARLPADPGKTPGTLRTLDYWGQGTQVTVSS | high polyreactivity |
| QVQLVESGGGLVQAGGSLRLSCAASGRIFRWNAMGWYRQAPGKERELVASITGGDITNYADSVKGRFTISRDNAKNTVYLQMNSLKPEDTAVYYCAARGYGRGRPVASYGYDYWGQGTQVTVSS | low polyreactivity |
| QVQLVESGGGLVQAGGSLRLSCAASGRIFRWYAMGWYRQAPGKERELVAAISRSGTSTYYADSVKGRFTISRDNAKNTVYLQMNSLKPEDTAVYYCAADAVIFGMDYWGQGTQVTVSS | low polyreactivity |
| QVQLVESGGGLVQAGGSLRLSCAASGRIFRWYAMGWYRQAPGKERELVATISSTGGSTYYADSVKGRFTISRDNAKNTVYLQMNSLKPEDTAVYYCNALSFITITVYSEGDYWGQGTQVTVSS | low polyreactivity |
| QVQLVESGGGLVQAGGSLRLSCAASGRIFRYNAMGWYRQAPGKERELVAAISWTVGRTYYADSVKGRFTISRDNAKNTVYLQMNSLKPEDTAVYYCATYFRVWYRSYDYWGQGTQVTVSS | high polyreactivity |
| QVQLVESGGGLVQAGGSLRLSCAASGRIFRYNAMGWYRQAPGKERELVAAITRSGGSTYYADSVKGRFTISRDNAKNTVYLQMNSLKPEDTAVYYCAKVQNGQWSTSRVPGDYQYNYWGQGTQVTVSS | high polyreactivity |
| QVQLVESGGGLVQAGGSLRLSCAASGRIFRYNAMGWYRQAPGKERELVAAITWRGGSTYYADSVKGRFTISRDNAKNTVYLQMNSLKPEDTAVYYCNKVYSLTFEYDYWGQGTQVTVSS | high polyreactivity |
| QVQLVESGGGLVQAGGSLRLSCAASGRIFRYNAMVWNIQAPGKERELDAAISYRGTRTYYADSVKGRFTISRDNAKNTVYLQMNSLKPEDTAVYYCAKDSGYYTADDYDYWGQVTQVTVSS | low polyreactivity |
| QVQLVESGGGLVQAGGSLRLSCAASGRIFRYNTIGWYRQAPGKERELVADITSSDSSTNYADSVKGRFTISRDTAKNTVYLQMNSLKPEDTAVYYCNAVIYFKFDWGQGTQVTVSS | low polyreactivity |
| QVQLVESGGGLVQAGGSLRLSCAASGRIFRYNTMGWYRQAPGKERELVAAINSSGGRTYYADSVKGRFTISRDNAKNTVYLQMNSLKPEDTSVYYCAAVIYVLSGPGYDYWGQGTQVTVSS | high polyreactivity |
| QVQLVESGGGLVQAGGSLRLSCAASGRIFRYNTMGWYRQAPGKERELVASITYRGGSTYYADSVKGRFTISRDNAKNTVYLQMNSLKPEDTAVYYCAASPARYWYGGKEYDYWGQGTQVTVSS | high polyreactivity |
| QVQLVESGGGLVQAGGSLRLSCAASGRIFRYYAIGWYRQAPGKERELVAAISKSGGGTFYADSVKGRFTISRDNAKNTVYLQMNSLKPEDTAVYYCAARDKGLGKHDYWGQGTQVTVSS | low polyreactivity |
| QVQLVESGGGLVQAGGSLRLSCAASGRIFRYYAMGWYGQAPGKEREFVAAINSSGVNTYYADSVKGRFTISRDNAKNTVYLQMNSLKPEDTAVYYCAFLGMDYWGQGTQVTVSS | high polyreactivity |
| QVQLVESGGGLVQAGGSLRLSCAASGRIFRYYAMGWYRPAPGKERELVAGISSRGGSTYYADSVKGRFTISRDNAKNTVYLQMNSLKPEDTAVYYCAASPFHTVTPYGVVGRYDYWGQGTQVTVSS | high polyreactivity |
| QVQLVESGGGLVQAGGSLRLSCAASGRIFRYYAMGWYRQAPGKDRELVAAIRSASSTYYADSVKGRFTISRDNAKNTVYVQMNSLKPEDTAVSYCAARLYGVYKRRYYYWGQGTQVTVSS | high polyreactivity |
| QVQLVESGGGLVQAGGSLRLSCAASGRIFRYYAMGWYRQAPGKERELVAAINTSTGSTYYADSVKGRFTISRDNAKNTVYLQMNSLKPEDTAVYYCATGWHYYRSLRGGLAWPGGYWGQGTQVTVSS | high polyreactivity |

| Sequence | polyreactivity (PSR sort gate) |
| --- | --- |
| QVQLVESGGGLVQAGGSLRLSCAASGRIFRYYAMGWYRQAPGKERELVAAIRYRSGGTYYADSVKGRFTISRDNAKNTVYLQMNCLKPEDTAVYYCNADKRLRGHGYDYWGQGTQVTVSS | high polyreactivity |
| QVQLVESGGGLVQAGGSLRLSCAASGRIFRYYAMGWYRQAPGKERELVAAISSGGSTNYADSVKGRFTISRDNAKNTVYIQMNSLKPEDTPVYYCAAEWYSYGARSSYGGSRNDYWGQGTQVTVSS | low polyreactivity |
| QVQLVESGGGLVQAGGSLRLSCAASGRIFRYYAMGWYRQAPGKERELVAAISWSGSSTYYADSVKGRFTISRDNAKNTVFLQMNSLKPEDTAVYYCDALILSKSEYYWGQGTQVSVSS | high polyreactivity |
| QVQLVESGGGLVQAGGSLRLSCAASGRIFRYYAMGWYRQAPGKERELVATITASSGSTYYADSVKGRFTISRDNAKNTVYLQMNSLKPEDTAVYYCAAGFVYRPGSFIRFDYWGQGTQVTVSS | high polyreactivity |
| QVQLVESGGGLVQAGGSLRLSCAASGRIFRYYAMGWYRQAPGKERELVATITSSGGSTFYADSVKGRFTISRDNAKNTVYLQMNSLKPEDTAVYYCAASRASRYFPYDYWGQGTQVTVSS | high polyreactivity |
| QVQLVESGGGLVQAGGSLRLSCAASGRIFRYYAMGWYRQATGKERELVASISSGGSTNYADSVKGRCTISRDNAKNTVYLQMNSLKPEDTAVYYCNAVLCFRAVYEYDYWGQGTQVTVSS | high polyreactivity |
| QVQLVESGGGLVQAGGSLRLSCAASGRIFRYYARGWYRQAPGKEMELVAAISGSGGSTYYADSVKGRFTISRDNAQKTVYLQIHCLKPEDTAVYSCNARYRIPSGEGDHWGQGTQVTVSS | low polyreactivity |
| QVQLVESGGGLVQAGGSLRLSCAASGRIFRYYVMGWYRQAPGKETELVAAISRSGGTTYYADSVKGRFTISRDNAKNTVYLQMNSLKPEDTAVYYCAAVYGRDPGDYWGQGTQVTVSS | high polyreactivity |
| QVQLVESGGGLVQAGGSLRLSCAASGRIFSAYAMGGYRQAPGKGRELVAAISYSGGSTYYADSVKGRFTISRDNAKNTVYLQMNSLKPEDTAVYYCAASGPRWWRFGYWGQGTQVTVSS | low polyreactivity |
| QVQLVESGGGLVQAGGSLRLSCAASGRIFSAYAMGWYRQAPGKERELVAAISKRGGRTYYADSVKGRFTISRDNAKNTVYLQMNSLKPEDTAVYYCNKRYHDGHELDYWGQGTQVTVSS | high polyreactivity |
| QVQLVESGGGLVQAGGSLRLSCAASGRIFSAYAMGWYRQAPGKERELVAAITSVGSTKYADSVKGLFTISRDNAKNTVYLQMNSLKPEDTAVYYCAAEYTRSFYIYYRFGYWGQGTQVTVSS | high polyreactivity |
| QVQLVESGGGLVQAGGSLRLSCAASGRIFSAYAMGWYRQAPGKERELVAVISRRGGRTYYADSVKGRFTISRDNAKNTVYLQMNSLKPEDTAVYYCAALGRRTRLYYWGQGTQVTVSS | high polyreactivity |
| QVQLVESGGGLVQAGGSLRLSCAASGRIFSDNAMGWYRQAPGKERELVATINYSGGSTYYADSVKGRFTISRDNAKNTVYLQMNSLKPEDTAVYYCATRIPHRINYYDYDYWGQGTQVTVSS | low polyreactivity |
| QVQLVESGGGLVQAGGSLRLSCAASGRIFSDYAMGWYRQAPGKERELVATITSGDSTNYADSVKGRFTISRDNAKNTVYLQMNSLKTEDTAVYYCNADRFADYDYWGQGTQVTVSS | low polyreactivity |
| QVQLVESGGGLVQAGGSLRLSCAASGRIFSENAMGWYRQAPGKERELVAAITGNGGDTYYADSVKGRFTISRDNAKNTVYLQMNSLKPEDTAVYYCAAETGGLGGDYWGQGTQVTVSS | low polyreactivity |
| QVQLVESGGGLVQAGGSLRLSCAASGRIFSEYAMGWYRQAPGKERELVAAISGTGGRTYYADSVKGRFTISRDNAKNTVYLQMNSLKPEDTAVYYCAARTGQGPLYNHWGQGTQVTVSS | high polyreactivity |
| QVQLVESGGGLVQAGGSLRLSCAASGRIFSFNAMGWYRPAPGKERELVATISWNGDSTYADSVKGRFTISRDNAKNTVYLQMNSLKPEDTAVYYCAVDVPPWDYDYWGQGTQVTVSS | low polyreactivity |
| QVQLVESGGGLVQAGGSLRLSCAASGRIFSFNAMGWYRQAPGKERELVAAISWSTGSTFYADSVKGRFTISRDNAKNTVYVQMNSLKPEDTAFYYCAREYYYRRGFFLRGYWGQGTQVTVSS | high polyreactivity |
| QVQLVESGGGLVQAGGSLRLSCAASGRIFSFNAMGWYRQAPGKERELVATISWNGDSTYADSVKGRFTISRDNAKNTVYLQMNSLKPEDTAVYYCAVDVPPWDYDYWGQGTQVTVSS | low polyreactivity |
| QVQLVESGGGLVQAGGSLRLSCAASGRIFSFYAMVWSRQAPGKERELVAAISSGGYTYYADSVKGRFTISRDNAKNTVYLQMNSLKPEDTAVYYCATGYRKLSSRYGYWGQGTQVTVSS | high polyreactivity |
| QVQLVESGGGLVQAGGSLRLSCAASGRIFSGYAMGWYRQAPGKERELVAAISQRGGSTTYADSVKGRFTISRDNAKNTVYLQMNSLKPEDTAVYYCAKRYTYPSGYDYWGQGTQVTVSS | low polyreactivity |
